Source: article PMC3089482 (Nucleic Acids Research, 2011)

Target: T1, Archaeoglobus fulgidus PCNA (Archaeoglobus fulgidus, UniProt O29912)
T1 sequence: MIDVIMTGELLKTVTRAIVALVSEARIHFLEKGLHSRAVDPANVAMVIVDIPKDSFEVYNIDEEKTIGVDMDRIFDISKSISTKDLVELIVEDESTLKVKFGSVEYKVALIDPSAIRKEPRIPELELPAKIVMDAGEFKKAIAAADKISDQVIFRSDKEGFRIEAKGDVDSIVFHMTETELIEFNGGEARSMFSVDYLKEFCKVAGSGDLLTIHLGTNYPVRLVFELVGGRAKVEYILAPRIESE
Test: pull-down

B1: GST-RNase HII hinge deletion mutant (ΔSNLR) (enzyme)
chain: MKAGIDEAGKGCVIGPLVVAGVACSDEDRLRKLGVKDSKKLSQGRREELAEEIRKICRTEVLKVSPENLDERMAAKTINEILKECYAEIILRLKPEIAYVDSPDVIPERLSRELEEITGLRVVAEHKADEKYPLVAAASIIAKVEREREIERLKEKFGDFGSGYASDPRTREVLKEWIASGRIPSCVRMRWKTVQKTLDDF
binding result: binds
